The chains are these.
B1: Cytotoxicity-associated immunodominant antigen (Helicobacter pylori), P55980 (parent)
chain: MTNETIDQTRTPDQTQSQTAFDPQQFINNLQVAFIKVDNVVASFDPDQKPIVDKNDRDNRQAFDGISQLREEYSNKAIKNPTKKNQYFSDFIDKSNDLINKDNLIDVESSTKSFQKFGDQRYQIFTSWVSHQKDPSKINTRSIRNFMENIIQPPIPDDKEKAEFLKSAKQSFAGIIIGNQIRTDQKFMGVFDESLKERQEAEKNGGPTGGDWLDIFLSFIFNKKQSSDVKEAINQEPVPHVQPDIATTTTDIQGLPPEARDLLDERGNFSKFTLGDMEMLDVEGVADIDPNYKFNQLLIHNNALSSVLMGSHNGIEPEKVSLLYAGNGGFGDKHDWNATVGYKDQQGNNVATLINVHMKNGSGLVIAGGEKGINNPSFYLYKEDQLTGSQRALSQEEIRNKVDFMEFLAQNNTKLDNLSEKEKEKFQNEIEDFQKDSKAYLDALGNDRIAFVSKKDTKHSALITEFNNGDLSYTLKDYGKKADKALDREKNVTLQGSLKHDGVMFVDYSNFKYTNASKNPNKGVGATNGVSHLEAGFNKVAVFNLPDLNNLAITSFVRRNLENKLTAKGLSLQEANKLIKDFLSSNKELAGKALNFNKAVAEAKSTGNYDEVKKAQKDLEKSLRKREHLEKEVEKKLESKSGNKNKMEAKAQANSQKDEIFALINKEANRDARAIAYTQNLKGIKRELSDKLEKISKDLKDFSKSFDEFKNGKNKDFSKAEETLKALKGSVKDLGINPEWISKVENLNAALNEFKNGKNKDFSKVTQAKSDLENSVKDVIINQKVTDKVDNLNQAVSVAKAMGDFSRVEQVLADLKNFSKEQLAQQAQKNEDFNTGKNSELYQSVKNSVNKTLVGNGLSGIEATALAKNFSDIKKELNEKFKNFNNNNNGLKNSTEPIYAKVNKKKTGQVASPEEPIYTQVAKKVNAKIDRLNQIASGLGGVGQAAGFPLKRHDKVDDLSKVGLSASPEPIYATIDDLGGPFPLKRHDKVDDLSKVGRSRNQELAQKIDNLNQAVSEAKAGFFGNLEQTIDKLKDSTKKNVMNLYVESAKKVPASLSAKLDNYAINSHTRINSNIQNGAINEKATGMLTQKNPEWLKLVNDKIVAHNVGSVSLSEYDKIGFNQKNMKDYSDSFKFSTKLNNAVKDIKSGFTHFLANAFSTGYYCLARENAEHGIKNVNTKGGFQKS

The values below come from IntAct's records for PubMed 19966800.

In the test the parent is B1. The settings on record: with mark2_human MARK2, Q7KZI7.
Chain of mark2_human MARK2, Q7KZI7 (Q7KZI7 whole entry): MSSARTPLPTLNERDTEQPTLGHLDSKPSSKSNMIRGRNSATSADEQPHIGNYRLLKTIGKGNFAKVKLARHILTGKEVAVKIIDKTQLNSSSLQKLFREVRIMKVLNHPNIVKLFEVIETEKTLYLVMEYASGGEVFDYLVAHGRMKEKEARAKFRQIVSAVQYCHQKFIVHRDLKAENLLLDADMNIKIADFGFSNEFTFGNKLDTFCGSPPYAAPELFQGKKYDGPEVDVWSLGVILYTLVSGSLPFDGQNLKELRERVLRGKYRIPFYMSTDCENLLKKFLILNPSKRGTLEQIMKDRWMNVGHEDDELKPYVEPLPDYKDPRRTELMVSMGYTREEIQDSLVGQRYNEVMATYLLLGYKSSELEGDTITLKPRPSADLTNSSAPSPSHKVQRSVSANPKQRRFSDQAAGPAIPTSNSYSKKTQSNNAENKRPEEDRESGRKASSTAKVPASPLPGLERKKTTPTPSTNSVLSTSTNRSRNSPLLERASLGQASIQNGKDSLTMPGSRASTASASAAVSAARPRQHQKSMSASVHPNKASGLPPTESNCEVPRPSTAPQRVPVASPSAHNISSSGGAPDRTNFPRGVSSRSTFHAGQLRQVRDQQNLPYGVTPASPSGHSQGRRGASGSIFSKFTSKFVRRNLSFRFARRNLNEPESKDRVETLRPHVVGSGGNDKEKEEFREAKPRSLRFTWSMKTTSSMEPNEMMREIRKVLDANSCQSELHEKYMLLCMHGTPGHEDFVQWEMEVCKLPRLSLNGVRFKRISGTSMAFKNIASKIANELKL
As for R952G, the “effect of a mutation on the interaction” value is on record as “decreasing interaction”.

As for V956G, the “effect of a mutation on the interaction” value was “disrupting interaction”. The entry for L950G is “disrupting interaction”; for L959G it is “disrupting interaction”.
